One molecule from publication PMC10925046, “TERRA-LSD1 phase separation promotes R-loop formation for telomere maintenance in ALT cancer cells” can be followed below.

For series [1], the target named is LSD1 deltaIDR 3KE;CoREST (human;human?, UniProt O60341;Q9UKL0 171-852;289-485, K355E;K357E;K359E|). Description: pull-down; EMSA: 4 C, 5 min, 0.75% agarose in 1x THE pH 7.4 (34 mM Tris, 66 mM HEPES, 0.1 mM EDTA) + 0.1 M K acetate, RNA folded in 10 mM Tris pH 7.4, 100 mM KCl, 1 mM TCE. A general note: A gel shift assay detects complexes by their altered migration in electrophoresis.

Series [2] concerns the target LSD1 deltaIDR;CoREST (human;human?, UniProt O60341;Q9UKL0 171-852;289-485, |). The series is described as above.

Regarding UUAGGGUUAGGGUUAGGGUUAGGGUUAGGGUUAGGGUUAGGGUUAGGG (structured_RNA) [biotin-TERRA (UUAGGG)8], the figures for the binding result in series [1] and in series [2] were “no binding” and “binds”, respectively.
